Test results from patent US20250304711A1, “Methods and Compositions for Treating Obesity, Obesity-Related Diseases, Fatty Liver and Fatty Liver Associated Diseases with Anti-CD24 Agents” (The Board of Trustees of the Leland Stanford Junior …, priority 2022, published 2025).

What was measured:
[1] = tested on: Huh7D cells; assay: Steatosis in Huh7D cells cultured in fatty medium, Nile Red stain; type: cell-based; conditions: Huh7D cells 4 days in fatty medium, then treated 3 days in fatty medium; Nile Red fluorescence; agents at 1 μg/mL unless otherwise specified
Procedure: FIG. 1A-1D: Relative lipid accumulation of Huh 7D cells when cultured on fatty medium and treated with various anti-CD24 agents. Agents were added at 1 μg/mL unless otherwise specified as in the Fab. MOSW1, SWA11, ML5, SN3: mouse anti human CD24 antibodies; MOSW2: SWA11 antibody with point mutations to silent complement activity; MOSW3: SWA11 antibody with point mutations to silent complement activity, antibody-dependent cytotoxicity (ADCC) and antibody-dependent cellular phagocytosis (ADCP); Fab: Fab of SWA11 antibody, G7s: scFv against human and mouse CD24; TW2, TW6, V2, V3, V4, V6, V7, V8, V9, V10, V14, V15, V16: different humanized anti-CD24 antibodies; hIgG: human IgG isotype control. FIG. 1A: anti-steatosis activity of SWA-11, Fab, TW2, TW6 and G7S; FIG. 1B: anti-steatosis activity of V2, V3, V4, V6, V7, V8, V9, V10, V14, V15, V16; FIG. 1C: anti-steatosis of SWA11, Fab, ML5, SN3, MOSW1, MOSW2, MOSW3; FIG. 1D: anti-steatosis of 3 small molecules that bind CD24.
Specifically, Huh7 cells, which are liver hepatoma cells, were cultured in 1% DMSO (Huh7D cells) and then supplemented with fatty medium to induce steatosis. […] To determine the degree of steatosis, cells were stained with 1 mg/ml Nile Red solution (Sigma Aldrich) in cell culture medium for 15 mins at 37° C. and florescence signal was measured.

[2] = tested on: NSG mice with humanized livers; assay: NSG mice with humanized livers on HFD: graft survival, human albumin, CT; type: in vivo, mouse
Procedure: In order to determine the effect of anti-CD24 agent in a more physiologic model of human fatty liver disease, we used a mouse model in which human liver can be engrafted. Briefly, NSG mice with humanized livers were prepared using the RAAPID-TKG method. These mice contain chimeric livers that harbor both murine and human hepatocytes and the degree of human liver engraftment can be ascertained by measuring serum human albumin. 2 mice with similar degrees of human liver engraftment, as measured by baseline serum human albumin, were placed on HFD for 6 weeks and then treated with either IgG control or an anti-CD24 antibody—which we term MOSW3—whose Fc has been engineered to contain point mutations that abrogate ADCC, ADCP, as well as compliment binding activity, i.e., Fc-silent antibody. Antibodies were dosed at 25 μg twice a week.

Molecule: O=C(O)c1ccccc1C(=O)c1cn(-c2ccc(F)cc2)[n+]([O-])n1 [A]
- anti-steatosis efficacy (relative lipid accumulation) [1]: anti-steatosis efficacy

Molecule: Cc1cccc(-n2nc([N+](=O)[O-])c(NCc3ccc(F)cc3)[n+]2[O-])c1 [B]
- anti-steatosis efficacy (relative lipid accumulation) [1]: anti-steatosis efficacy

B1: MOSW3: SWA11 mouse IgG2a, C1q and Fc silenced (L234A, L235A, K320A, K322A, P329G); SEQ ID NO: 17 and 34 (antibody)
heavy: DVQLQESGPDLVKPSQSLSLTCTVTGYSITSGYTWHWIRQFPGNTVEWMGYIQYTGSTRYNPALRGRLSISRDTSKNQFFLQLISVTTADTGTYFCARGTTASFDYWGQGTTLTVASAKTTAPSVYPLAPVCGDTTGSSVTLGCLVKGYFPEPVTLTWNSGSLSSGVHTFPAVLQSDLYTLSSSVTVTSSTWPSQSITCNVAHPASSTKVDKKIEPRGPTIKPCPPCKCPAPNAAGGPSVFIFPPKIKDVLMISLSPIVTCVVVDVSEDDPDVQISWFVNNVEVHTAQTQTHREDYNSTLRVVSALPIQHQDWMSGKEFACAVNNKDLGAPIERTISKPKGSVRAPQVYVLPPPEEEMTKKQVTLTCMVTDFMPEDIYVEWTNNGKTELNYKNTEPVLDSDGSYFMYSKLRVEKKNWVERNSYSCSVVHEGLHNHHTTKSFSRTPGK
light: DIVMSQSPSSLNVSVGEKVTMRCRSSQSLLYSSDQKNYLTWYQQKPGQSPKLLISWASTRASGVPDRFTGSGSGTDFTLTISSVKAEDLGVYYCQQYFIYPLTFGVGTKLGLKRADAAPTVSIFPPSSEQLTSGGASVVCFLNNFYPKDINVKWKIDGSERQNGVLNSWTDQDSKDSTYSMSSTLTLTKDEYERHNSYTCEATHKTSTSPIVKSFNRNEC
- steatosis on liver CT scan ([2]; 3 weeks post treatment, IgG treated mouse vs MOSW3 treated mouse): The IgG treated mouse showed higher level of steatosis (FIG. 9B) compared to the MOSW3 treated mouse
- human liver graft survival ([2]; HFD 6 weeks, then 25 μg twice a week, vs IgG control): longer graft survival
- serum human albumin ([2]; humanized-liver NSG mice, HFD 6 weeks, then 25 μg twice a week, weekly serum for 3 weeks, vs IgG control): maintenance of serum human albumin
